Entries after “also recorded” stand apart in the source; their conditions may differ.
B1: Chimera 191-335: CYP102A1 heme domain with residues 191-335 from CYP102A2 (protein)
chain: TIKEMPQPKTFGELKNLPLLNTDKPVQALMKIADELGEIFKFEAPGRVTRYLSSQRLIKEACDESRFDKNLSQALKFVRDFAGDGLATSWTHEKNWKKAHNILLPSFSQQAMKGYHAMMVDIAVQLVQKWERLNADEHIEVPEDMTRLTLDTIGLCGFNYRFNSFYRDQPHPFITSMVRALDEAMNKLQRLDVQDKLMVRTKRQFRYDIQTMFSLVDSIIAERRANGDQDEKDLLARMLNVEDPETGEKLDDENIRFQIITFLIAGHETTSGLLSFATYFLLKHPDKLKKAYEEVDRVLTDAAPTYKQVLELTYIRMILNESLRLWPTAPAFSLYPKEDTVLGGEYPLEKGDELMVLIPQLHRDKTIWGDDVEEFRPERFENPSAIPQHAFKPFGNGQRACIGQQFALHEATLVLGMMLKHFDFEDHTNYELDIKETLTLKPEGFVVKAKSKKIPLGGIPSPST
modifications: Chimeric Cytochrome P450 heme group sequence from Bacillus megaterium and Bacillus subtilis
notes: CYP102A1 heme domain with residues 191-335 from CYP102A2
B2: Chimera F3791: chimera of the CYP102A1/A2/A3 seven-crossover library (protein)
chain: KETSPIPQPKTFGPLGNLPLIDKDKPTLSLIKLAEEQGPIFQIHTPAGTTIVVSGHELVKEVCDESRFDKNLSQALKFVRDFAGDGLATSWTHEKNWKKAHNILLPSFSQQAMKGYHAMMVDIAVQLIQKWARLNPNEAVDVPGDMTRLTLDTIGLCGFNYRFNSYYRDSQHPFITSMLRALKEAMNQSKRLGLQDKMMVKTKLQFQKDIEVMNSLVDKIIADRKASGEQSDDLLTHMLNGKDPETGEPLDDENIRYQIITFLIAGHETTSGLLSFATYFLLKHPDKLKKAYEEVDRVLTDAAPTYKQVLELTYIRMILNESLRLWPTAPAFSLYAKEDTVLGGEYPISKGQPVTVLIPKLHRDQNAWGPDAEDFRPERFEDPSSIPHHAYKPFGNGQRACIGMQFALQEATMVLGLVLKHFELINHTGYELKIKEALTIKPDDFKITVKPRKTAAINVQRKEQA
modifications: Chimeric Cytochrome P450 heme group polypeptide sequence from CYP102A1 (Bacillus megaterium); CYP102A2 (Bacillus subtilis) and CYP102A3 (Bacillus subtilis)
notes: chimera of the CYP102A1/A2/A3 seven-crossover library
B3: CYP102A1: parent P450 heme domain from Bacillus megaterium, with the F87A mutation (protein, listed as Bacillus megaterium)
chain: TIKEMPQPKTFGELKNLPLLNTDKPVQALMKIADELGEIFKFEAPGRVTRYLSSQRLIKEACDESRFDKNLSQALKFVRDFAGDGLATSWTHEKNWKKAHNILLPSFSQQAMKGYHAMMVDIAVQLVQKWERLNADEHIEVPEDMTRLTLDTIGLCGFNYRFNSFYRDQPHPFITSMVRALDEAMNKLQRANPDDPAYDENKRQFQEDIKVMNDLVDKIIADRKASGEQSDDLLTHMLNGKDPETGEPLDDENIRYQIITFLIAGHETTSGLLSFALYFLVKNPHVLQKAAEEAARVLVDPVPSYKQVKQLKYVGMVLNEALRLWPTAPAFSLYAKEDTVLGGEYPLEKGDELMVLIPQLHRDKTIWGDDVEEFRPERFENPSAIPQHAFKPFGNGQRACIGQQFALHEATLVLGMMLKHFDFEDHTNYELDIKETLTLKPEGFVVKAKSKKIPLGGIPSPST
B4: Chimera 43-135: CYP102A1 heme domain with residues 43-135 from CYP102A2 (protein)
chain: TIKEMPQPKTFGELKNLPLLNTDKPVQALMKIADELGEIFKFHTPAGTTIVVSGHELVKEVCDEERFDKSIEGALEKVRAFSGDGLATSWTHEPNWRKAHNILMPTFSQRAMKDYHEKMVDIAVQLIQKWARLNPDEHIEVPEDMTRLTLDTIGLCGFNYRFNSFYRDQPHPFITSMVRALDEAMNKLQRANPDDPAYDENKRQFQEDIKVMNDLVDKIIADRKASGEQSDDLLTHMLNGKDPETGEPLDDENIRYQIITFLIAGHETTSGLLSFALYFLVKNPHVLQKAAEEAARVLVDPVPSYKQVKQLKYVGMVLNEALRLWPTAPAFSLYAKEDTVLGGEYPLEKGDELMVLIPQLHRDKTIWGDDVEEFRPERFENPSAIPQHAFKPFGNGQRACIGQQFALHEATLVLGMMLKHFDFEDHTNYELDIKETLTLKPEGFVVKAKSKKIPLGGIPSPST
modifications: Chimeric Cytochrome P450 heme group sequence from Bacillus megaterium and Bacillus subtilis
notes: CYP102A1 heme domain with residues 43-135 from CYP102A2

Tests used:
[1] = Peroxygenase activity, hydroxylation of 12-pNCA; type: biochemical; settings: 250 μM 12-pNCA
Description: (§1) The chimeras were assayed for hydroxylation of p-nitrophenoxydodecanoic acid (12-pNCA), a fatty acid analog that is hydroxylated by CYP102A1 and CYP102A2 to yield p-nitrophenolate (Schwaneberg et al., Anal Biochem 269,359-366 (1999)). […] When hydroxylation rates for the parent CYP102 enzymes were monitored using the maximum soluble concentrations of these substrates, activity could only be detected on 2-phenoxy-ethanol.
This Example provides one method by which peroxygenase activity of a P450 enzyme may be characterized. First order rates for p-nitrophenolate accumulation were determined using 1 μM enzyme, 20 mM H2O2, 250 μM 12-pNCA and 0.5% dimethyl sulfoxide (DMSO) in 100 mM Tris-HCl (pH 8.2) at room temperature. Enzyme, substrate, buffer and DMSO were combined in a cuvette and zeroed at 410 nm. Reaction mixtures were incubated for 4 minutes and initiated by the addition of H2O2 to a final concentration of 20 mM. Initial rates were determined by monitoring the accumulation of p-nitrophenolate at 410 nm, and data from the first six seconds were used to determine initial rates. […] The extinction coefficient of p-nitrophenolate is 13,200 M^−1cm^−1 (Schwaneberg et al., Anal Biochem 269:359-366 (1999)).

[2] = Peroxygenase activity on 2-phenoxy-ethanol (4-AAP assay); type: biochemical; settings: 100 mM substrate
Description: as §1
(§2) Rates on 2-phenoxy-ethanol and allyloxy-benzene were determined using 2 μM enzyme, 20 mM H2O2, 1% DMSO, and 1% acetone in 100 mM N-[2-hydroxyethyl]piperazine-N′-[3-propanesulfonic acid] (Epps) (pH 8.2) at room temperature. Substrate concentrations for 2-phenoxy-ethanol (100 mM) and allyloxy benzene (50 mM) maintained saturation. Reactions were initiated by the addition of H2O2 and quenched at appropriate times using an equal volume of a solution containing 4M urea and 100 mM NaOH. 120 μl of 0.6% 4-AAP was added, followed by mixing and addition of 120 μl of 0.6% potassium persulfate. Color was allowed to develop for 20 minutes before absorbance was read at 500 nm. Rates were determined from the linear region of the time course. The major products were determined by GC/MS to be the hemiacetal, which decomposes to phenol. The extinction coefficient for the 4-AAP/phenol complex was determined to be 4,800 M^−1cm^−1. The results can be seen in FIG. 4.

[3] = Peroxygenase activity on allyloxy-benzene (4-AAP assay); type: biochemical; settings: 50 mM substrate
Description: as §1, §2

[4] = Peroxidase activity with ABTS and H2O2; type: biochemical; settings: for peroxidase activity relative to parents: ABTS; for Peroxidase activity: 10 mM ABTS, 20 mM H2O2, pH 5.0, activities <0.2 not detectable (N.D.)
Method in brief: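 Initial peroxidase rates from ABTS radical cation accumulation at 414 nm: 1 μM enzyme, 10 mM ABTS, 200 mM phosphate pH 5.0, room temperature, started with H2O2 to 20 mM. Monitored 5 min; rate from steepest part of time course using ε 36,000 […].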

[5] = Peroxygenase substrate activity profile; type: biochemical; settings: 20 mM H2O2
Method in brief: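 Peroxygenase rates were measured with H2O2 (20 mM) at room temperature and pH 8.2. For 12-pNCA (250 μM), 1 μM enzyme in Tris buffer was used, with initial p-nitrophenolate formation read at 410 nm over the first 6 s. For 2-phenoxy-ethanol (100 mM) and allyloxy-benzene (50 mM), 2 μM enzyme in EPPS buffer was used, reactions were quenched, phenol was detected by 4-AAP at 500 nm, and rates are in nmol product/nmol P450/min.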

[6] = Thermostability (loss of Soret band at increasing temperatures); type: physicochemical; settings: cell extracts heated 10 minutes
Method in brief: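 Cell extracts heated 10 minutes at a range of temperatures, cooled to 4° C and centrifuged to remove precipitate. Remaining P450 quantified by carbon monoxide reduced difference spectroscopy, following loss of the CO/Soret peak with temperature.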

[7] = Library plate screen, activity on 12-pNCA; type: biochemical; settings: seven-crossover library, cell lysate
Description: These library plates were replicated and grown in 96 deep-well plates in 900 μL of LB media with 100 μg/ml ampicillin overnight at 30° C. and 250 rpm. 150 μL of this was then transferred to 850 μL of induction media (TB-media with final concentrations of 100 μg/ml ampicillin, 25 μg/ml thiamine, 0.5 mM δ-aminolevulinic acid and 0.6 mM IPTG). These were grown for 20-24 hours at 25° C. and 190 rpm, harvested by centrifugation at 5000×g for 8 minutes and frozen at −20° C. for at least 24 hours. Cells were resuspended using a pipetting robot (Multimek 96, Beckman) and lysed in 400 μL of Epps or Tris buffer (100 mM, pH 8.2) containing 0.8 mg/ml lysozyme and 2 units/mL DNaseI for 1 hour at 37° C. Plates were then spun for 8 minutes at 5000×g and 4° C. to pellet cell debris. 80 μL of lysate was transferred into 4 separate 96 well plates for each library plate. […] On one plate, high -throughput carbon monoxide spectroscopy was done in order to assess relative amounts of P450 (Otey, C. R. High-throughput carbon monoxide binding assay for cytochromes P450. In Directed Enzyme Evolution: Screening and Selection Methods, F. H. Arnold and G. Georgiou, eds. (Totowa, N.J.: Humana Press) pp. 137-139 (2003)) with 0.1 M sodium hydrosulfite being used in place of 0.4 M. The other three plates were used to assay activity on different substrates. […]

[8] = Li et al. 2001; read-out: KM for 12-pNCA; cited from earlier work

Row | Molecule | peroxygenase activity on 12-pNCA [1] | peroxygenase activity on 2-phenoxy-ethanol [2] | peroxygenase activity on allyloxy-benzene [3] | peroxidase activity relative to parents [4] | substrate activity profile relative to parents [5] | Tm [6] | activity for 12-pNCA compared to parent P450s [7] | Peroxidase activity [4] | Km [8]
1 | B1 | not | detectable activity | detectable activity | no detectable peroxidase activity | new activity; also recorded: gained novel activity | 40 °C | – | – | –
2 | B2 | – | – | – | – | – | – | superior activity | – | –
3 | B3 | – | – | – | low, but detectable peroxidase activity | – | 55 °C | – | 2.6 nmol product/nmol P450/min | 8.1 µM
4 | B4 | not | detectable activity | highest rates; also recorded: detectable activity | – | new activity; also recorded: gained novel activity | 53 °C | – | 6.8 nmol product/nmol P450/min | –

From patent US8603949B2, “Libraries of optimized cytochrome P450 enzymes and the optimized P450 enzymes” (California Institute of Technology, priority 2003, dated 2013)
